Measured values: patent US20240175038

Target: T1, IntC3 (mutant phage lambda integrase) (Enterobacteria phage lambda) (UniProt P03700)
T1 sequence: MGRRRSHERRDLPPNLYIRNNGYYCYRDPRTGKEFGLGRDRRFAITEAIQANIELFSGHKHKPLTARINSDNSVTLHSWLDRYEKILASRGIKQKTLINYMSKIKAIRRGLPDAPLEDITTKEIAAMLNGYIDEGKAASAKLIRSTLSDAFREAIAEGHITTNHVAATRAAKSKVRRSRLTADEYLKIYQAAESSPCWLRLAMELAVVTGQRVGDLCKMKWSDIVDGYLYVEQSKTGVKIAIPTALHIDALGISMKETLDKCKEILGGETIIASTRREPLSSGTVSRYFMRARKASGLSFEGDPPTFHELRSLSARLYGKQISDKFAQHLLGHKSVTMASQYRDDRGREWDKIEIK
Assay: cell_activity
Details: E. coli MG1655-ISC, scIHF2 co-expressed, arabinose 70 min

| Substance | activity (% recombination) (recombination with attL homologue) | activity (% recombination) (recombination with attB homologue) |
| --- | --- | --- |
| 21 bp attB homologue in pattPhae2(attL) | > 90 | – |
| 121 bp attL homologue in pattPhae2(attL) | – | > 90 |
